# From PMC2367712
# B1: C42 (dsDNA)
# DNA 1: AAAAATCTCTAAAAAATCTCTAAAAATCTCTAAAAAATCTCT
# DNA 2: AGAGATTTTTTAGAGATTTTTAGAGATTTTTTAGAGATTTTT
# Biological target: Lsr2 P103A (Mycobacterium tuberculosis, UniProt P9WIP7 1-112, P101A)
# Assay: EMSA
binder,measurement,value
B1,binding result,binds
